Experimental findings from patent publication US20250136938A1 are described below.

The assay has as its target KRAS^G12V-reactive TCR (Pt. 4148). In words: tetramer staining, flow cytometry on 41BB-enriched CD8 memory T cells of Pt. 4148. On the technique in general: Flow cytometry measures light scatter and fluorescence of single cells or particles in a stream.

As for “HLA-A*11:01-KRAS^G12V 9-mer tetramer (from UniProt P01116 8-16; P61769 21-119) (peptide-MHC)”, the percent of memory CD8 cells in the culture bound by tetramer is 15.9%.
